From US20230110958A1 (Regeneron, published 2023) come the findings set out here.

Residue numbers refer to the chain shown, from its start. Names may count otherwise.

Test in all cases: cell-based or functional assay
The target in experiment [1] is human IL27 receptor (IL27Ra and gp130) on NCI-H929/GAS-Luc cells (human) (UniProt Q6UWB1).
Experiment [2] concerns the target T1, murine IL27 receptor (IL27Ra and gp130) on mouse cells (MC9/STAT3-Luc reporter cells; splenic CD4+ T cells) (mouse) (UniProt O70394).
T1 sequence (looked up) 1: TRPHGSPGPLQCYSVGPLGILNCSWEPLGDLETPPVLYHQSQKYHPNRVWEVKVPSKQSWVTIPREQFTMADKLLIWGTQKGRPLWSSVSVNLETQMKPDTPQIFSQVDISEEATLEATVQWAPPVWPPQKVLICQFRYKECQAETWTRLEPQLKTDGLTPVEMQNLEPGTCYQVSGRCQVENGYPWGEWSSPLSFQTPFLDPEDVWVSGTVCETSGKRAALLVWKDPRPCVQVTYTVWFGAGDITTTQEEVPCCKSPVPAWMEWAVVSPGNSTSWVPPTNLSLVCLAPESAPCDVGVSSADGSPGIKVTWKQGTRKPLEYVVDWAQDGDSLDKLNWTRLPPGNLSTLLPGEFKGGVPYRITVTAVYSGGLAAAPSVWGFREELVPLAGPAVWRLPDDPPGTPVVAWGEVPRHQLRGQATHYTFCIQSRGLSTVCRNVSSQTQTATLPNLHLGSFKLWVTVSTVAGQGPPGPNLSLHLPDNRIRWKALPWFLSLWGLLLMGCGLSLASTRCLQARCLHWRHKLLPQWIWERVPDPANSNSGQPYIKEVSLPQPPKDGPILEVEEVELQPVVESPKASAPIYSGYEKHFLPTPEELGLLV
T1 sequence (looked up) 2: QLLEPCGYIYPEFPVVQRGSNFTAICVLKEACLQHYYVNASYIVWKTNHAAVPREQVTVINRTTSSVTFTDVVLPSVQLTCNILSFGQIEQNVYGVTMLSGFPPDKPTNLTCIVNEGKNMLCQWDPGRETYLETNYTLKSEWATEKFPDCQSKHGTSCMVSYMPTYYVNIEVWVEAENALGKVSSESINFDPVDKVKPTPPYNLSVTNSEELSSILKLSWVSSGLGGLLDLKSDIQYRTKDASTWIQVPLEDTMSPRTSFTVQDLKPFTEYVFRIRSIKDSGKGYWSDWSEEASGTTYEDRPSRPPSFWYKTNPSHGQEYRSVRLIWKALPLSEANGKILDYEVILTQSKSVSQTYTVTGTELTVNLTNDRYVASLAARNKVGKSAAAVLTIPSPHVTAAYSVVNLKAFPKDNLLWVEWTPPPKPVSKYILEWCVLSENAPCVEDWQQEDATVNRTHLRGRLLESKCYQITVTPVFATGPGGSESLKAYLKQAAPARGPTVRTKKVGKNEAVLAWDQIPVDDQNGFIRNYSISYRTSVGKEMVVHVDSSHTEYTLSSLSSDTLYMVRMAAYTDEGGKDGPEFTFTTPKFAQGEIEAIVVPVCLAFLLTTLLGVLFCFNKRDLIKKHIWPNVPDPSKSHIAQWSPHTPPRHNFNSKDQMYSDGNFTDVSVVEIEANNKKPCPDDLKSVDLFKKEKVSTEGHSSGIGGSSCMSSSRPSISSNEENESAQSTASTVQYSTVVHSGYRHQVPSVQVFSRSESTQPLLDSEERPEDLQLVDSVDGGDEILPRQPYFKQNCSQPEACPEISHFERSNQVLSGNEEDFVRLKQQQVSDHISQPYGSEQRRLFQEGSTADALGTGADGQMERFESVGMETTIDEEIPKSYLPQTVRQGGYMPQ

Experiment [3] deals with T2, murine IL27 receptor (IL27Ra and gp130) on mouse cells (MC9/STAT3-Luc reporter cells; splenic CD4+ T cells) (mouse, UniProt O70394 25-623; Q00560 23-917).
T2 sequence (looked up) 1: T1 sequence (looked up) 1
T2 sequence (looked up) 2: T1 sequence (looked up) 2

Experiment [4] addresses T2, murine IL27 receptor (IL27Ra and gp130) …. The source holds these as a separate data set.

human IL27 receptor (IL27Ra and gp130) on NCI-H929/GAS-Luc cells (human), sequence (Q6UWB1 33-636, chain 1 of 2): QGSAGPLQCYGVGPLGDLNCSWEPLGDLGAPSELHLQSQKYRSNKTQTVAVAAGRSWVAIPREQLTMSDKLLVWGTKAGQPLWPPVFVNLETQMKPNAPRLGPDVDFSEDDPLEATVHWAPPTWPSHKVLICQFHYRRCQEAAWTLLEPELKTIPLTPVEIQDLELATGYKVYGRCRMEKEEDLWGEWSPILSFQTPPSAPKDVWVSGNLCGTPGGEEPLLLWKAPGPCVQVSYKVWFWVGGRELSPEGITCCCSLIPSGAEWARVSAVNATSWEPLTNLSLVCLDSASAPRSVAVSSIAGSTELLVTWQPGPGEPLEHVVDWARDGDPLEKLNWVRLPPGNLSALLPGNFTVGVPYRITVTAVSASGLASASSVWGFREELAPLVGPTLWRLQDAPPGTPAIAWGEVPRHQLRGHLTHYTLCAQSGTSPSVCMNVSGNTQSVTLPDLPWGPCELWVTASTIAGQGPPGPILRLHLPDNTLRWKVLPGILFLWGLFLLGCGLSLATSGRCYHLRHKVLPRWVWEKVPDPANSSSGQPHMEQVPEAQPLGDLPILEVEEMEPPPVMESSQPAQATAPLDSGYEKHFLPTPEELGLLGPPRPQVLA
human IL27 receptor (IL27Ra and gp130) on NCI-H929/GAS-Luc cells (human), sequence (chain, as listed by the source, chain 2 of 2): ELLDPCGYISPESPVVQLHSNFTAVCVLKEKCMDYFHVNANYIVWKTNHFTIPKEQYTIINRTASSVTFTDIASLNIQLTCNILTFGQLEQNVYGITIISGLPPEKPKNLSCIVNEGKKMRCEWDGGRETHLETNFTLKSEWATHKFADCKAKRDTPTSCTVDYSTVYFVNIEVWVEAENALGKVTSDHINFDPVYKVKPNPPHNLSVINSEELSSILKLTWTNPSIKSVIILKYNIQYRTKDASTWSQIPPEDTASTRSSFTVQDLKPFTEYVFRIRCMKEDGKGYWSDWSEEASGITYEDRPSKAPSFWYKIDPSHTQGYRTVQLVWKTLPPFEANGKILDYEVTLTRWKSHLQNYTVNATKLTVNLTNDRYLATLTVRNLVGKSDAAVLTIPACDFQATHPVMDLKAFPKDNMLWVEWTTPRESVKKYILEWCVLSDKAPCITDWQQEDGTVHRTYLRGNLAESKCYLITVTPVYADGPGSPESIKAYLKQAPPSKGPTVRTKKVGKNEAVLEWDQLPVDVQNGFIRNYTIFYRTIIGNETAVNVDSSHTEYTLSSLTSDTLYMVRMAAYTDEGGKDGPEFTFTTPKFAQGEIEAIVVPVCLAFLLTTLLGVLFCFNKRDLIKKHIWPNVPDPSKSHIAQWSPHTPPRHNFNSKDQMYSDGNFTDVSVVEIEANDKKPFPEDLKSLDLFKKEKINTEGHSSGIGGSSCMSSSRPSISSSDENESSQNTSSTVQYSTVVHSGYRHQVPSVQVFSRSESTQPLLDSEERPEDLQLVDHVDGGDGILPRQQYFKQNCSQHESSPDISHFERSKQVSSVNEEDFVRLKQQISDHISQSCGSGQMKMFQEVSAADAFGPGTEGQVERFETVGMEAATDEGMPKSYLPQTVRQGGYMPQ

In the case of “human EBI3-p28-Fc (bivalent), configuration IL27M1 (Fc fusion)”, in experiment [1], the EC50 (M), GAS luciferase, NCI-H929/GAS-Luc cells stood at 5.35e-09 M and the FOLD INDUCTION, GAS luciferase, NCI-H929/GAS-Luc cells amounted to 15.2 fold.

In experiment [1], “human hEBI3×hp28-Fc (monovalent) (Fc fusion)” displayed an EC50 (M), GAS luciferase, NCI-H929/GAS-Luc cells of 1.27e-10 M and an FOLD INDUCTION, GAS luciferase, NCI-H929/GAS-Luc cells of 14.3 fold.

B1: Recombinant murine IL27 (R&D Systems cat# 2700-ML-010/CF), Mouse EBI3-(GGGS)4-Mouse p28-6-His tag (ligand)
chain: YTETALVALSQPRVQCHASRYPVAVDCSWTPLQAPNSTRSTSFIATYRLGVATQQQSQPCLQRSPQASRCTIPDVHLFSTVPYMLNVTAVHPGGASSSLLAFVAERIIKPDPPEGVRLRTAGQRLQVLWHPPASWPFPDIFSLKYRLRYRRRGASHFRQVGPIEATTFTLRNSKPHAKYCIQVSAQDLTDYGKPSDWSLPGQVESAPHKPGGGSGGGSGGGSGGGSFPTDPLSLQELRREFTVSLYLARKLLSEVQGYVHSFAESRLPGVNLDLLPLGYHLPNVSLTFQAWHHLSDSERLCFLATTLRPFPAMLGGLGTQGTWTSSEREQLWAMRLDLRDLHRHLRFQVLAAGFKCSKEEEDKEEEEEEEEEEKKLPLGALGGPNQVSSQVSWPQLLYTYQLLHSLELVLSRAVRDLLLLSLPRRPGSAWDSHHHHHH
Regarding B1, in experiment [2], the EC50 (M), STAT3 luciferase, MC9/STAT3-Luc cells was determined as 3.22e-12 M; the EC50 (M), STAT3 luciferase, MC9 cells came out at 4.62e-12 M; the EC50, luciferase activity, MC9/STAT3-Luc reporter cells amounted to 0.0063 nM; the EC50, phosphorylation of STAT1 in CD4+ T-cells was found to be 0.0244 µg/mL. In addition, in experiment [2], the FOLD INDUCTION, STAT3 luciferase, MC9/STAT3-Luc cells amounted to 5.25 fold and the FOLD INDUCTION, STAT3 luciferase, MC9 cells came to 2.86 fold.

B2: IL27M14, 2:2 complex between IL27M13 (p28-Fc) and EBI3-mmh (Fc fusion)
chain 1: FPTDPLSLQELRREFTVSLYLARKLLSEVQGYVHSFAESRLPGVNLDLLPLGYHLPNVSLTFQAWHHLSDSERLCFLATTLRPFPAMLGGLGTQGTWTSSEREQLWAMRLDLRDLHRHLRFQVLAAGFKCSKEEEDKEEEEEEEEEEKKLPLGALGGPNQVSSQVSWPQLLYTYQLLHSLELVLSRAVRDLLLLSLPRRPGSAWDSGGGGSGGGGSGGGGSESKYGPPCPPCPAPPVAGPSVFLFPPKPKDTLMISRTPEVTCVVVDVSQEDPEVQFNWYVDGVEVHNAKTKPREEQFNSTYRVVSVLTVLHQDWLNGKEYKCKVSNKGLPSSIEKTISKAKGQPREPQVYTLPPSQEEMTKNQVSLTCLVKGFYPSDIAVEWESNGQPENNYKTTPPVLDSDGSFFLYSRLTVDKSRWQEGNVFSCSVMHEALHNHYTQKSLSLSLGK
chain 2: YTETALVALSQPRVQCHASRYPVAVDCSWTPLQAPNSTRSTSFIATYRLGVATQQQSQPCLQRSPQASRCTIPDVHLFSTVPYMLNVTAVHPGGASSSLLAFVAERIIKPDPPEGVRLRTAGQRLQVLWHPPASWPFPDIFSLKYRLRYRRRGASHFRQVGPIEATTFTLRNSKPHAKYCIQVSAQDLTDYGKPSDWSLPGQVESAPHKPEQKLISEEDLGGEQKLISEEDLHHHHHH
With B2, in experiment [3], the “EC50 (M), STAT3 luciferase, MC9 cells” value was 2.81e-10 M and the “FOLD INDUCTION, STAT3 luciferase, MC9 cells” value (“FOLD INDUCTION … MC9 cells” for short) came out at 2.71 fold.

B3: IL27M18, 2:2 complex between IL27M17 (Fc-p28) and EBI3-mmh (Fc fusion)
chain 1: ESKYGPPCPPCPAPPVAGPSVFLFPPKPKDTLMISRTPEVTCVVVDVSQEDPEVQFNWYVDGVEVHNAKTKPREEQFNSTYRVVSVLTVLHQDWLNGKEYKCKVSNKGLPSSIEKTISKAKGQPREPQVYTLPPSQEEMTKNQVSLTCLVKGFYPSDIAVEWESNGQPENNYKTTPPVLDSDGSFFLYSRLTVDKSRWQEGNVFSCSVMHEALHNHYTQKSLSLSLGKGGGGSGGGGSGGGGSFPTDPLSLQELRREFTVSLYLARKLLSEVQGYVHSFAESRLPGVNLDLLPLGYHLPNVSLTFQAWHHLSDSERLCFLATTLRPFPAMLGGLGTQGTWTSSEREQLWAMRLDLRDLHRHLRFQVLAAGFKCSKEEEDKEEEEEEEEEEKKLPLGALGGPNQVSSQVSWPQLLYTYQLLHSLELVLSRAVRDLLLLSLPRRPGSAWDS
chain 2: B2 chain 2
As for B3, in experiment [3], the “EC50 (M), STAT3 luciferase, MC9 cells” value was 2.36e-10 M and the “FOLD INDUCTION … MC9 cells” value was determined as 2.86 fold.

B4: IL27M16, monovalent Fc x EBI3-p28 (Fc fusion)
chain 1: ESKYGPPCPPCPAPPVAGPSVFLFPPKPKDTLMISRTPEVTCVVVDVSQEDPEVQFNWYVDGVEVHNAKTKPREEQFNSTYRVVSVLTVLHQDWLNGKEYKCKVSNKGLPSSIEKTISKAKGQPREPQVYTLPPSQEEMTKNQVSLWCLVKGFYPSDIAVEWESNGQPENNYKTTPPVLDSDGSFFLYSRLTVDKSRWQEGNVFSCSVMHEALHNHYTQKSLSLSLGKGGGGSGGGGSGGGGSYTETALVALSQPRVQCHASRYPVAVDCSWTPLQAPNSTRSTSFIATYRLGVATQQQSQPCLQRSPQASRCTIPDVHLFSTVPYMLNVTAVHPGGASSSLLAFVAERIIKPDPPEGVRLRTAGQRLQVLWHPPASWPFPDIFSLKYRLRYRRRGASHFRQVGPIEATTFTLRNSKPHAKYCIQVSAQDLTDYGKPSDWSLPGQVESAPHKPGGGGSGGGGSGGGGSGGGGSFPTDPLSLQELRREFTVSLYLARKLLSEVQGYVHSFAESRLPGVNLDLLPLGYHLPNVSLTFQAWHHLSDSERLCFLATTLRPFPAMLGGLGTQGTWTSSEREQLWAMRLDLRDLHRHLRFQVLAAGFKCSKEEEDKEEEEEEEEEEKKLPLGALGGPNQVSSQVSWPQLLYTYQLLHSLELVLSRAVRDLLLLSLPRRPGSAWDS
chain 2: ESKYGPPCPPCPAPPVAGPSVFLFPPKPKDTLMISRTPEVTCVVVDVSQEDPEVQFNWYVDGVEVHNAKTKPREEQFNSTYRVVSVLTVLHQDWLNGKEYKCKVSNKGLPSSIEKTISKAKGQPREPQVYTLPPSQEEMTKNQVSLSCAVKGFYPSDIAVEWESNGQPENNYKTTPPVLDSDGSFFLVSRLTVDKSRWQEGNVFSCSVMHEALHNRFTQKSLSLSPGK
Consider B4, for which, in experiment [4], the “EC50 (M), STAT3 luciferase, MC9/STAT3-Luc cells” value (“EC50 (M) … MC9/STAT3-Luc cells” below) was 1.16e-11 M and the “FOLD INDUCTION, STAT3 luciferase, MC9/STAT3-Luc cells” value (from here on “FOLD INDUCTION … MC9/STAT3-Luc cells”) was 5.62 fold. Besides, in experiment [3], the “EC50 (M), STAT3 luciferase, MC9 cells” value came out at 1.18e-11 M and the “FOLD INDUCTION … MC9 cells” value turned out to be 2.76 fold.

B5: IL27M24, monovalent Fc x EB13-p28 (K52A) (Fc fusion)
chain 1: B4 chain 1 with K497A
chain 2: B4 chain 2
For B5, in experiment [4], the “EC50 (M) … MC9/STAT3-Luc cells” value came to 1.18e-11 M and the “FOLD INDUCTION … MC9/STAT3-Luc cells” value turned out to be 5.59 fold.

B6: IL27M27, monovalent Fc x EB13-p28 (W195A) (Fc fusion)
chain 1: B4 chain 1 with W640A
chain 2: B4 chain 2
For the molecule B6, the “FOLD INDUCTION … MC9/STAT3-Luc cells” value in experiment [4] came out at 1.2 fold.

B7: IL27M23, monovalent Fc x EB13-p28 (Y202A, Q203A) (Fc fusion)
chain 1: B4 chain 1 with Y647A, Q648A
chain 2: B4 chain 2
In the case of B7, in experiment [4], the “EC50 (M) … MC9/STAT3-Luc cells” value was determined as 1.98e-11 M and the “FOLD INDUCTION … MC9/STAT3-Luc cells” value came out at 5.34 fold.

B8: IL27M25, monovalent Fc x EB13-p28 (L138A, R145A, H146A) (Fc fusion)
chain 1: B4 chain 1 with L583A, R590A, H591A
chain 2: B4 chain 2
In the case of B8, the “FOLD INDUCTION … MC9/STAT3-Luc cells” value in experiment [4] is 4.35 fold.

B9: IL27M26, monovalent Fc x EB13-p28 (L198A, L199A) (Fc fusion)
chain 1: B4 chain 1 with L643A, L644A
chain 2: B4 chain 2
With B9, in experiment [4], the “EC50 (M) … MC9/STAT3-Luc cells” value is 3.85e-10 M and the “FOLD INDUCTION … MC9/STAT3-Luc cells” value is 2.8 fold.
